Source: patent US20220089722A1

Biological target: CD3 on T cells (Jurkat T cells; PBMC-T cells)
Assay: flow cytometry on Jurkat T cells; protein purified on CH1 resin

Chain of CD3 on T cells (Jurkat T cells; PBMC-T cells) (P07766 23-207): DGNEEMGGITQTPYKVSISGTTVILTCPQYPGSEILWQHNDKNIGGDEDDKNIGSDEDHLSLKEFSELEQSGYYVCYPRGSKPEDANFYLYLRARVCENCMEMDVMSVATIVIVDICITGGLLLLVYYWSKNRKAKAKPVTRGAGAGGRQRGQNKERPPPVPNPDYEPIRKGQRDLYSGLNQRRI

B1: IgFD-36(anti-CD3) (antibody, human IgG1, kappa, V domains shown)
VH: EVQLVESGGGLVQPGGSLRLSCAASGFTFNTYAMNWVRQAPGKGLEWVARIRSKYNNYATYYADSVKDRFTISRDDSKNTLYLQMNSLRAEDTAVYYCVRHGNFGNSYVSWFAYWGQGTLVTVSS
VL: QAVVTQEPSLTVSPGGTVTLTCRSSTGAVTTSNYANWVQQKPDHLFRGLIGGTNKRAPGTPARFSGSLLGDKAALTISGAQPEDEAEYYCALWYSNLWVFGGGTKLTVLK
  Kd: 6.12 nM
